± gives the uncertainty stated by the source.
Assay: protein stability index of a GFP-peptide fusion (yeast GPS) (PSI 1-4); higher = more stable; sorted into four equal gates, so the index is relative within each strain
Procedure, shortened: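 Peptides tiling yeast proteins in 17-residue segments were fused downstream of GFP, with Cherry expressed from the same plasmid. As a pooled library in yeast, mid-log cultures grown in leucine-free medium were sorted into four equal gates by GFP/Cherry fluorescence ratio. Gate plasmids were PCR-amplified and Illumina-sequenced, and barcodes linked reads to strains. Each peptide received a protein stability index equal to the sum of each gate's read frequency times its gate number.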

| Sequence | protein stability index (doa10∆) | protein stability index (pdr5∆) | protein stability index (san1∆) | protein stability index (ubr1∆) |
| --- | --- | --- | --- | --- |
| DSIGSTRVEGSGGGDSE [RPT6] | 2.6 ± 0.1 | 2.65 ± 0.11 | 3.1 ± 0.065 | 2.97 ± 0.064 |
| YLFHNDRIIHTWRTQLA [ECM29] | 1.55 ± 0.05 | 1.77 ± 0.042 | 1.47 ± 0.064 | 1.91 ± 0.039 |
| TKAVEFSMGHIRSSSVS [MED4] | 3.26 ± 0.12 | 3.38 ± 0.093 | 3.18 ± 0.078 | 2.99 ± 0.078 |
| RQSSVGSLNATNFSPTP [SNF2] | 2.75 ± 0.049 | 2.98 ± 0.048 | 2.54 ± 0.044 | 2.96 ± 0.051 |
| FIYGEDGMDAAHIEKQS [RPO21] | 3.31 ± 0.069 | 3.29 ± 0.084 | 3.38 ± 0.054 | 3.36 ± 0.043 |
| PQKNVKIQVVDRHIGCV [PRE10] |  | 2.72 ± 0.27 |  |  |
| HYVSTSKISQMAQNKTH [YLR018C/POM34] | 1.56 ± 0.032 | 2.02 ± 0.035 | 1.78 ± 0.058 | 1.87 ± 0.027 |
| PGQKMSLFSHRKHTRGD [BRN1] | 3.34 ± 0.23 | 2.95 ± 0.21 | 3.31 ± 0.15 | 3.22 ± 0.062 |
| KKTRIIPRHLQLAIRND [HTA1] | 2.47 ± 0.088 | 2.69 ± 0.078 | 3.03 ± 0.11 | 2.05 ± 0.081 |
| NAAPANVTGGKAANFIQ [SWI1] | 2.52 ± 0.05 | 1.86 ± 0.045 | 2.48 ± 0.086 | 2.46 ± 0.049 |
| ASTPSIRPDGRLPHQFR [RRP42] | 2.9 ± 0.14 | 3.21 ± 0.12 | 2.81 ± 0.19 | 2.99 ± 0.089 |
| KNLNPASSSPSSTDFST [ECM29] | 3.11 ± 0.049 | 2.81 ± 0.045 | 2.97 ± 0.056 | 2.91 ± 0.032 |
| MSGLPPPPPGFEEDSDL [PRP8] | 3.19 ± 0.11 | 3.37 ± 0.083 | 3.13 ± 0.075 | 3.31 ± 0.078 |
| AFDIELSEFGIKKMLHL [YCS4] | 3.11 ± 0.067 | 3.09 ± 0.088 | 2.67 ± 0.1 | 3.12 ± 0.063 |
| LIPFIVKQVLLSVEIGV [NUT1] | 1.57 ± 0.031 | 1.6 ± 0.031 | 1.56 ± 0.059 | 1.74 ± 0.036 |
| LNSYWVNQDSTYKYFEV [RPL15A] | 3.23 ± 0.061 | 3.27 ± 0.076 | 3.32 ± 0.041 | 3.2 ± 0.058 |
| EQEQQQQQIIKIRITLT [RPS20] | 2.77 ± 0.057 | 2.86 ± 0.06 | 3.03 ± 0.043 | 3.09 ± 0.061 |
| RKSYKNQIADLSGKFST [ROX3] | 2.76 ± 0.082 | 2.94 ± 0.063 | 2.84 ± 0.06 | 2.92 ± 0.036 |
| KIDKPIRTQVNTGGESV [RGR1] | 2.4 ± 0.06 | 2.4 ± 0.044 | 2.32 ± 0.052 | 2.25 ± 0.036 |
| QRIIADLSADKPTSPFI [SRB8] | 2.78 ± 0.041 | 2.81 ± 0.054 | 2.82 ± 0.043 | 2.94 ± 0.048 |
| ISSEKLLTLTNAANVPV [RPP1A] | 2.95 ± 0.091 | 2.9 ± 0.1 | 2.93 ± 0.065 | 3 ± 0.082 |
| LDKHERKWMEEKADYER [YIL149C/MLP2] | 2.8 ± 0.094 | 3.35 ± 0.15 | 2.66 ± 0.13 | 3.25 ± 0.12 |
| LKLEYYNLLVKISLHKR [RPN5] | 1.38 ± 0.26 | 1.28 ± 0.26 |  | 1.13 ± 0.084 |
| VDRSKYNIELPLPPRID [RPT1] | 3.33 ± 0.2 | 3.58 ± 0.26 | 3.15 ± 0.094 | 3.14 ± 0.17 |
| WRKWNVKVNHNEKRYAT [RPL4A] | 2.36 ± 0.24 | 2.94 ± 0.16 | 1.59 ± 0.13 | 1.94 ± 0.23 |
| FLVRYACEPTAEKFVPI [SIR3] | 2.55 ± 0.23 | 2.9 ± 0.097 | 2.75 ± 0.11 | 2.91 ± 0.1 |
| NAIRIGELFLNESWKSS [SRP72] | 3.39 ± 0.14 | 3.21 ± 0.083 | 2.62 ± 0.14 | 3.12 ± 0.062 |

| Sequence | protein stability index (doa10∆) | protein stability index (pdr5∆) | protein stability index (san1∆) | protein stability index (ubr1∆) |
| --- | --- | --- | --- | --- |
| ELTLAEQQVKEAEMAYV [SMC4] | 3.02 ± 0.1 | 3.1 ± 0.076 | 2.81 ± 0.078 | 2.81 ± 0.074 |
| KLISAFDDLEVEELPTF [RRP42] | 2.57 ± 0.06 | 2.84 ± 0.05 | 2.5 ± 0.066 | 2.85 ± 0.036 |
| QNPENLLSEKILQYFEK [SIR3] | 2.83 ± 0.079 | 2.81 ± 0.086 | 2.8 ± 0.054 | 3.2 ± 0.072 |
| SYEKNEDHVEDHRKRKK [LIN1] | 3.25 ± 0.1 | 3.36 ± 0.1 | 3.38 ± 0.084 | 3.21 ± 0.054 |
| LLTVTPGPRLLYENIAS [RPN10] | 1.86 ± 0.036 | 1.92 ± 0.054 | 1.95 ± 0.086 | 1.82 ± 0.035 |
| TLLKNLRKKLNFKLCQA [YJR042W/NUP85] | 2.01 ± 0.12 | 2.12 ± 0.097 | 1.13 ± 0.23 |  |
| KILEQFEYVLYPSKTLK [FAS2] | 3.01 ± 0.078 | 2.93 ± 0.069 | 2.97 ± 0.077 | 3.15 ± 0.064 |
| QDSIFQRIIADLSADKP [SRB8] | 2.63 ± 0.046 | 2.56 ± 0.057 | 2.59 ± 0.048 | 2.52 ± 0.032 |
| KEHEPCIIFMDEVDAIG [RPT4] | 1.85 ± 0.049 | 1.92 ± 0.059 | 1.79 ± 0.12 | 1.98 ± 0.072 |
| ILVKRYSIEMKPYSGKL [ECM29] | 1.58 ± 0.048 | 1.76 ± 0.049 | 1.79 ± 0.073 | 2.43 ± 0.044 |
| LGSGSLAAMAVLESHWK [PUP1] | 3.24 ± 0.16 | 3.27 ± 0.14 | 2.64 ± 0.2 | 3.69 ± 0.18 |
| LFSSRRLQAKRLKDVEW [RMP1] | 2.62 ± 0.084 | 2.79 ± 0.059 | 3.1 ± 0.079 | 1.68 ± 0.065 |
| SELNEGNLSKREIQIDA [SRB8] | 2.69 ± 0.062 | 2.88 ± 0.073 | 2.98 ± 0.069 | 2.12 ± 0.063 |
| QQNYSKVLLPSINISCV [SWI1] | 1.85 ± 0.067 | 1.71 ± 0.059 | 1.87 ± 0.16 | 2.53 ± 0.054 |
| GKKKSATAVAHVKAGKG [RPS16A] | 2.86 ± 0.094 | 2.69 ± 0.073 | 2.49 ± 0.11 | 2.53 ± 0.11 |
| SVFDATSDPVMHKQLAY [RPN1] | 2.28 ± 0.11 | 2.17 ± 0.077 | 1.79 ± 0.14 | 1.96 ± 0.082 |
| LGSQSKSDEGGSYLCTS [YOR098C/NUP1] | 3.26 ± 0.11 | 2.98 ± 0.07 | 3.14 ± 0.069 | 2.71 ± 0.081 |
| RERRAALTDFERFQVMV [RPL14A] | 1.77 ± 0.12 | 2.24 ± 0.094 | 1.41 ± 0.13 | 1.8 ± 0.07 |
| EIEQLDQYIQKQVQISH [YGL172W/NUP49] | 2.91 ± 0.056 | 3.11 ± 0.05 | 2.75 ± 0.073 | 2.87 ± 0.059 |
| VTNDDKSDDDDHTVDEI [SRB8] | 2.67 ± 0.077 | 2.8 ± 0.085 | 3.07 ± 0.094 | 3.01 ± 0.045 |
| RESFEDNVVRFLNEARD [RPO21] | 3.21 ± 0.15 | 2.98 ± 0.13 | 3.04 ± 0.16 | 2.92 ± 0.11 |
| LAHSQHRCAIRSGALIK [SSN2] | 1.5 ± 0.058 | 1.22 ± 0.046 | 1.16 ± 0.13 | 1.16 ± 0.037 |
| INFERIDEVFSWYLNTF [GRR1] | 2.22 ± 0.058 | 1.91 ± 0.044 | 2.51 ± 0.1 | 1.82 ± 0.051 |
| SFLKVDPDLGLDLMFDE [YJL039C/NUP192] | 3.3 ± 0.083 | 3.3 ± 0.09 | 3.04 ± 0.087 | 3.06 ± 0.091 |
| PRQLHNTHWGLVCPAET [RPB2] | 1.6 ± 0.089 | 1.7 ± 0.07 | 1.47 ± 0.12 | 1.2 ± 0.088 |
| GVEYRLRLRISRKRNEE [RPL31A] | 1.5 ± 0.12 | 1.26 ± 0.12 |  | 1.18 ± 0.22 |
